These results are taken from the supplement of paper PMC3353916.

± gives the standard deviation of the averaged measurements.

This data set deals with Sindbis virus TE/5'2J-GFP. In words: percent infected (GFP+ in RFP+ ISG-expressing cells); higher = more infection (less antiviral activity). The method, then:
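Confirmatory testing of 87 ISGs. Triplicate wells of BHK/HA-Zeo (control) or BHK/NZAP-Zeo (ZAP) cells were transduced with lentiviruses co-expressing a human ISG plus TagRFP, then infected 48 h later with SINV TE/5'2J-GFP (moi 5). The % GFP+ cells among RFP+ cells was measured by flow cytometry at 8 h post infection. Fluc lentivirus served as control. Three independent experiments.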

Where [1] appears, read: experiment: confirmatory screen 1, BHK/HA-Zeo (control).
The mark [2] stands for this setting: experiment: confirmatory screen 1, BHK/NZAP-Zeo (ZAP).
[3] abbreviates: experiment: confirmatory screen 2, BHK/HA-Zeo (control).
Where [4] appears, read: experiment: confirmatory screen 2, BHK/NZAP-Zeo (ZAP).
[5] abbreviates: experiment: confirmatory screen 3, BHK/HA-Zeo (control).
Setting [6] is: experiment: confirmatory screen 3, BHK/NZAP-Zeo (ZAP).
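Further: Interferon-defective BHK-21 derivatives, ZAP line overexpressing the rat ZAP N-terminal zinc finger domain fused to Zeocin resistance, GFP scored within live singlet TagRFP+ cells.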

“MEKGPVRAPAEKPRGARCSNGFPERDPPRPGPSRPAEKPPRPEAKSAQPADGWKGERPRSEEDNELNLPNLAAAYSSILSSLGENPQRQGLLKTPWRAASAMQFFTKGYQETISDVLNDAIFDEDHDEMVIVKDIDMFSMCEHHLVPFVGKVHIGYLPNKQVLGLSKLARIVEIYSRRLQVQERLTKQIAVAITEALRPAGVGVVVEATHMCMVMRGVQKMNSKTVTSTMLGVFREDPKTREEFLTLIRS [GCH1]”: the percent infected is, setting by setting: under setting [1], 95.976 ± 0.021%; under setting [2], 74 ± 2%; under setting [3], 95.09 ± 0.34%; under setting [4], 93.4 ± 1.6%; under setting [5], 92.6 ± 0.98%; under setting [6], 92.19 ± 0.15%.
Turning to “MKEDCLPSSHVPISDSKSIQKSELLGLLKTYNCYHEGKSFQLRHREEEGTLIIEGLLNIAWGLRRPIRLQMQDDREQVHLPSTSWMPRRPSCPLKEPSPQNGNITAQGPSIQPVHKAESSTDSSGPLEEAEEAPQLMRTKSDASCMSQRRPKCRAPGEAQRIRRHRFSINGHFYNHKTSVFTPAYGSVTNVRVNSTMTTLQVLTLLLNKFRVEDGPSEFALYIVHESGERTKLKDCEYPLISRILHGPCEKIARIFLMEADLGVEVPHEVAQYIKFEMPVLDSFVEKLKEEEEREIIKLTMKFQALRLTMLQRLEQLVEAK [RASSF4]”, the percent infected was 80.1 ± 2.3% under setting [1]; 56.3 ± 1.3% under setting [2]; 94.73 ± 0.66% under setting [3]; 94.93 ± 0.39% under setting [4]; 89.1 ± 0.9% under setting [5]; 89.9 ± 1.3% under setting [6].
“MPRQLSAAAALFASLAVILHDGSQMRAKAFPETRDYSQPTAAATVQDIKKPVQQPAKQAPHQTLAARFMDGHITFQTAATVKIPTTTPATTKNTATTSPITYTLVTTQATPNNSHTAPPVTEVTVGPSLAPYSLPPTITPPAHTTGTSSSTVSHTTGNTTQPSNQTTLPATLSIALHKSTTGQKPVQPTHAPGTTAAAHNTTRTAAPASTVPGPTLAPQPSSVKTGIYQVLNGSRLCIKAEMGIQLIVQDKESVFSPRRYFNIDPNATQASGNCGTRKSNLLLNFQGGFVNLTFTKDEESYYISEVGAYLTVSDPETIYQGIKHAVVMFQTAVGHSFKCVSEQSLQLSAHLQVKTTDVQLQAFDFEDDHFGNVDECSSDYTIVLPVIGAIVVGLCLMGMGVYKIRLRCQSSGYQRI [LAMP3]”: the percent infected runs as follows: under setting [1], 95.8 ± 1.7%; under setting [2], 52.1 ± 5.6%; under setting [3], 97.55 ± 0.14%; under setting [4], 96.16 ± 0.23%; under setting [5], 86.4 ± 2.6%; under setting [6], 89.93 ± 0.19%.
For “MLLRSKPALPPPLMLLLLGPLGPLSPGALPRPAQAQDVVDLDFFTQEPLHLVSPSFLSVTIDANLATDPRFLILLGSPKLRTLARGLSPAYLRFGGTKTDFLIFDPKKESTFEERSYWQSQVNQDICKYGSIPPDVEEKLRLEWPYQEQLLLREHYQKKFKNSTYSRSSVDVLYTFANCSGLDLIFGLNALLRTADLQWNSSNAQLLLDYCSSKGYNISWELGNEPNSFLKKADIFINGSQLGEDFIQLHKLLRKSTFKNAKLYGPDVGQPRRKTAKMLKSFLKAGGEVIDSVTWHHYYLNGRTATKEDFLNPDVLDIFISSVQKVFQVVESTRPGKKVWLGETSSAYGGGAPLLSDTFAAGFMWLDKLGLSARMGIEVVMRQVFFGAGNYHLVDENFDPLPDYWLSLLFKKLVGTKVLMASVQGSKRRKLRVYLHCTNTDNPRYKEGDLTLYAINLHNVTKYLRLPYPFSNKQVDKYLLRPLGPHGLLSKSVQLNGLTLKMVDDQTLPPLMEKPLRPGSSLGLPAFSYSFFVIRNAKVAACI [HPSE]”, the percent infected is, setting by setting: under setting [1], 97.15 ± 0.33%; under setting [2], 79.82 ± 0.76%; under setting [3], 96 ± 1.1%; under setting [4], 95.86 ± 0.27%; under setting [5], 90.1 ± 0.52%; under setting [6], 90.5 ± 1.7%.
Take “MSSWSRQRPKSPGGIQPHVSRTLFLLLLLAASAWGVTLSPKDCQVFRSDHGSSISCQPPAEIPGYLPADTVHLAVEFFNLTHLPANLLQGASKLQELHLSSNGLESLSPEFLRPVPQLRVLDLTRNALTGLPPGLFQASATLDTLVLKENQLEVLEVSWLHGLKALGHLDLSGNRLRKLPPGLLANFTLLRTLDLGENQLETLPPDLLRGPLQLERLHLEGNKLQVLGKDLLLPQPDLRYLFLNGNKLARVAAGAFQGLRQLDMLDLSNNSLASVPEGLWASLGQPNWDMRDGFDISGNPWICDQNLSDLYRWLQAQKDKMFSQNDTRCAGPEAVKGQTLLAVAKSQ [LRG1]”: the percent infected is, setting by setting: under setting [1], 95.1 ± 1%; under setting [2], 68.2 ± 4.8%; under setting [3], 95.09 ± 0.35%; under setting [4], 94.92 ± 0.53%; under setting [5], 93.09 ± 0.65%; under setting [6], 94.47 ± 0.18%.
In the case of “MALLLALSLLVLWTSPAPTLSGTNDAEDCCLSVTQKPIPGYIVRNFHYLLIKDGCRVPAVVFTTLRGRQLCAPPDQPWVERIIQRLQRTSAKMKRRSS [CCL19]”, the percent infected stood at 95.7 ± 1.2% under setting [1]; 81.5 ± 1.8% under setting [2]; 95.5 ± 0.73% under setting [3]; 95.12 ± 0.1% under setting [4]; 92.83 ± 0.53% under setting [5]; 92.52 ± 0.47% under setting [6].
With “MMAQSKANGSHYALTAIGLGMLVLGVIMAMWNLVPGFSAAEKPTAQGSNKTEVGGGILKSKTFSVAYVLVGAGVMLLLLSICLSIRDKRKQRQGEDLAHVQHPTGAGPHAQEEDSQEEEEEDEEAASRYYVPSYEEVMNTNYSEARGEEQNPRLSISLPSYESLTGLDETTPTSTRADVEASPGNPPDRQNSKLAKRLKPLKVRRIKSEKLHLKDFRINLPDKNVPPPSIEPLTPPPQYDEVQEKAPDTRPPD [TMEM51]”, the percent infected is 94.9 ± 1.4% under setting [1]; 61.1 ± 4.6% under setting [2]; 95.13 ± 0.15% under setting [3]; 94.94 ± 0.49% under setting [4]; 93.31 ± 0.41% under setting [5]; 92.77 ± 0.37% under setting [6].
Turning to ISG20, the percent infected runs as follows: under setting [1], 95.82 ± 0.88%; under setting [2], 73.1 ± 2.4%; under setting [3], 96.88 ± 0.17%; under setting [4], 95.24 ± 0.15%; under setting [5], 87 ± 2.5%; under setting [6], 90.59 ± 0.73%.
For “MKKSGVLFLLGIILLVLIGVQGTPVVRKGRCSCISTNQGTIHLQSLKDLKQFAPSPSCEKIEIIATLKNGVQTCLNPDSADVKELIKKWEKQVSQKKKQKNGKKHQKKKVLKVRKSQRSRQKKTT [CXCL9]”, the percent infected by setting is: under setting [1], 61.9 ± 6.1%; under setting [2], 44.7 ± 2.9%; under setting [3], 88.7 ± 2.5%; under setting [4], 91.55 ± 0.18%; under setting [5], 83.1 ± 1.5%; under setting [6], 82 ± 1.1%.
As to TIMP1, the percent infected under setting [1] stood at 94.88 ± 0.13%; the percent infected under setting [2] was found to be 66.4 ± 2.3%; the percent infected under setting [3] was determined as 94.66 ± 0.28%; the percent infected under setting [4] amounted to 93.37 ± 0.42%; the percent infected under setting [5] worked out at 90.3 ± 1.8%; the percent infected under setting [6] worked out at 92.63 ± 0.18%.
“MDENNGLLLLELNPPNPWDLQPRSPEELAFGEVQITYLTHACMDLKLGDKRMVFDPWLIGPAFARGWWLLHEPPSDWLERLCQADLIYISHLHSDHLSYPTLKKLAGRRPDIPIYVGNTERPVFWNLNQSGVQLTNINVVPFGIWQQVDKNLRFMILMDGVHPEMDTCIIVEYKGHKILNIVDCTRPNGGRLPMKVALMMSDFAGGASGFPMTFSGGKFTEEWKAQFIKTERKKLLNYKARLVKNLQPRIYCPFAGYFVESHPSDKYIKETNTKNDPNELNNLIKKNSDVITWTPRPGATLDLGRMLKDRTDSKGIIEPPEGTKIYKDSWDFEPYLEILNAALGDEIFLHSSWIKEYFTWAGFKDYNLVVRMIETDEDFNPFPGGYDYLVDFLDLSFPKERPQREHPYEEIHSRVDVIRHVVKNGLLWDELYIGFQTRLQRDPDIYHHLFWNHFQIKLPLTPPNWKSFLMCCEQNGPVILQFSTERTNEPNRNKFSVENKA [CMAH]” yielded a percent infected under setting [1] of 94.7 ± 1.2%; a percent infected under setting [2] of 75.3 ± 1.9%; a percent infected under setting [3] of 95.1 ± 0.29%; a percent infected under setting [4] of 94.26 ± 0.25%; a percent infected under setting [5] of 93.1 ± 0.62%; a percent infected under setting [6] of 92.979 ± 0.089%.
